In the supplement of paper PMC9170038:

Test system: MS2 coat protein
Assay: apparent KD of MS2 coat protein; designed switch direction (-1 OFF switch, 1 ON switch): -1; higher = weaker reporter binding
Method in brief: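 Designed RNA switches sharing common flanks were transcribed on Illumina chips by stalled E. coli RNA polymerase. They were titrated with SNAP-549-labelled MS2 coat protein, from 0.7 or 1.5 nM doubling to 3 µM, in Tris-HCl pH 7.5 buffer with KCl, MgCl2, BSA, DTT, tRNA and Tween-20. Titrations ran without input, with 200 uM small-molecule ligand, or with an oligonucleotide input. The apparent KD of each design is the median over its clusters, after curve-fitting of normalised cluster fluorescence.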

[1] = Eterna round: R95, input ligand: microRNA oligo, concentration not stated
[2] = Eterna round: R95, input ligand: FMN 200 uM
[3] = Eterna round: R95, input ligand: none

Row | Sequence | apparent KD of MS2 coat protein (input ligand: FMN 200 uM) [nM] | apparent KD of MS2 coat protein (input ligand: none) [nM] | apparent KD of MS2 coat protein [1] [nM] | further results
1 | CCCGGGUCAGGAUAUCACUUAAGCGCAGUGAGCGUCUGAGAUGAGAAGGGACAUGAGGAUCACCCAUGUGUGGC [Eternabot (L2) Solution 66] (Eterna round: R97, puzzle: Exclusion 4) | 456 | 93.7 | – | –
2 | CCCUAGGGAGGAUAUCCAAUAUAUGACAUGAGGAUCACCCAUGUUUCCACUCGUACCUCCGGAGAAGGCCCAUACC [Ex5 #10] (Eterna round: R97, puzzle: Exclusion 5) | 28 | 28.4 | – | –
3 | CCCUCACAUGAGGAUCACCCAUGUCAGGAUAUCUAGUCAGACAGUAUAGCACUGCUGAAGAGAAGGGACGUAAA [Labiusce] (puzzle: Exclusion 1) | – | – | 17 | –
4 | CCCUGACAUGAGGAUCACCCAUGUUAGGAUAUAACAUUUGACGCGACAGUGUGGAGUGUUAGAAGGGAUAUGGG [-28.4, -26.7 kcal, A 28%] (Eterna round: R97, puzzle: Exclusion 1) | 29.9 | 20.8 | – | –
5 | CCCUUGUGAGGAUAUAGUAGUUGCACAUCGAUAGAGUAACUCUAGAAGGCACAUGAGGAUCACCCAUGUACGAA [Eternabot (L1) Solution 56] (Eterna round: R97, puzzle: Exclusion 4) | 70.2 | 119 | – | –
6 | CCGAAAAGGAAGGAUAUGCUAGACGAAAGUCUAGCAGAAGGUCCUACAUGAGGAUCACCCAUGUGGUCCUUCGG [Mat - Exclusion 6 - Eli Mod - D35] (Eterna round: R97, puzzle: Exclusion 6) | 1730 | 448 | – | –
7 | CCGAAUAAGUAGGAUAUCGUAUCGGAAACGAUACGAGAAGGGCUAACAUGAGGAUCACCCAUGUUCCUUAACGG [Fiskers Ex 6 - 16] (puzzle: Exclusion 6) | – | – | 16.4 | apparent KD of MS2 coat protein [2]: 20 nM; apparent KD of MS2 coat protein [3]: 18.7 nM
8 | CCGCAAAUGGAGGAUAUCGUAUCGGAUACGAUACGAGAAGGCUAAACAUGAGGAUCACCCAUGUGUCCUAGCGG [Fiskers Ex 6 - 34] (puzzle: Exclusion 6) | – | – | 10.9 | –
9 | CCGCUACAUGAGGAUCACCCAUGUCAGGAUAUCGUACGUUCGUCGAUAGACGAUCGUACGAGAAGGGUGAGCGG [Mat - Exclusion 1 - Eli Mod - D37] (Eterna round: R97, puzzle: Exclusion 1) | 156 | 209 | – | –
10 | CCGCUCCGUGUAGGAUAUCGUUGUACCCUGCGGCGAGAAGGACAUGAGGAUCACCCAUGUAUGUUAUUAUCACGCGUGGCGCAC [Design 71] (Eterna round: R96, puzzle: Exclusion NG 1) | 18 | 19.3 | – | apparent KD of MS2 coat protein (input ligand: microRNA oligo, concentration not stated): 15.8 nM
11 | CCGGAAGUACAGGAUAUCGUAACGGAUACGUUACGAGAAGGGUAUACAUGAGGAUCACCCAUGUGUCCUACCGG [Mat - Exclusion 6 - Eli Mod - D95] (puzzle: Exclusion 6) | – | – | 26 | apparent KD of MS2 coat protein [2]: 27.8 nM; apparent KD of MS2 coat protein [3]: 27.1 nM
12 | CCGGUAUAGGAGGAUAUAGGAGUCGAUAGACACCUAGAAGGCCUGACAUGAGGAUCACCCAUGUGUCCUUCCGG [Fiskers Ex 6 - 95] (puzzle: Exclusion 6) | – | – | 17.7 | –
13 | CCGGUUUAGGAGGAUAUAGGAGUCGAUAGACACCUAGAAGGCCUAACAUGAGGAUCACCCAUGUGACCUUCCGG [Mod of Eli 30 - Jieux - Exclusion 6] (Eterna round: R97, puzzle: Exclusion 6) | 234 | 76 | – | –
14 | CCGUAACAUGAGGAUCACCCAUGUCAGGAUAUUCCAAAAUCGUCGAAAGACGAUAACAGAAGAAGGGACAGUGG [Fiskxlusion 5 - Jieux - Exclusion 1] (Eterna round: R97, puzzle: Exclusion 1) | 104 | 111 | – | –
